“Also recorded” adds a separate entry of the source. Where a SMILES comes first, the peptide text is derived from it. [ ]: non-standard residue; d: D form.
How the values were obtained:
[1] = tested on: PlcR regulon (plcA promoter-lacZ fusion); experiment: Competition studies of PapR7-derived peptides with endogenous PapR, β-galactosidase (lacZ reporter) assay; assay type: cell-based, B. thuringiensis 407 Cry- plcA'Z (Bt A'Z); details: Bt A'Z; for reduction of plcA'Z activity: 2.5 μM peptide, added at late-exponential phase (OD600 1.8 ± 0.1), normalized to untreated cells, mean; for reduction of plcA'Z activity / effect on plcA'Z activation / PlcR regulon activity after 24 h (in words) / effect on plcA'Z activation at low cell density (in words): n = 9; for IC50: late-exponential phase (OD600 1.8 ± 0.1), competition with endogenous PapR, mean ± SEM, SEM, read-out: IC50, lacZ-based reporter assay; for effect on plcA'Z activation / PlcR regulon activity after 24 h (in words) / effect on plcA'Z activation at low cell density (in words): 10 μM peptide; for effect on plcA'Z activation / PlcR regulon activity after 24 h (in words): added at OD600 0.1 ± 0.03, harvested after 24 h; for effect on plcA'Z activation at low cell density (in words): added at OD600 0.1 ± 0.03, quantified after 2.5 h; for class of inhibitory activity throughout the competition studies: plcA'lacZ, summary of the competition studies
Protocol: Bacterial strains used in this study: B. thuringiensis 407 Cry ^- plcA′Z (Bt A’Z) and the PapR null-mutant 407 Cry ^- ΔpapR plcA’Z (Bt ΔpapR A’Z) strains, containing a transcriptional fusion between the promoter of plcA and the lacZ reporter gene (as described previously; [Gominet et al., 2001]; [Slamti and Lereclus, 2002]); B. cereus strain ATCC 14579 ([Ivanova et al., 2003]). Unless otherwise noted, cells were grown in modified LB medium (16 g/L tryptone, 8 g/L yeast extract, 5 g/L NaCl) at 37°C and stored at −80°C in LB containing 25% glycerol. Kanamycin (200 μg/mL) was used for the selection of B. thuringiensis.
Bt A’Z cells were grown overnight in LB medium. The cells were diluted 10^–3 in modified LB to a final volume of 1 L and incubated at 37°C with shaking (200 rpm) until the end of the lag or late-exponential of bacterial growth (OD600 0.1 ± 0.03; 1.8 ± 0.1, respectively). Different concentrations of synthetic peptides were added to 2 ml aliquots of culture and incubated for various times (1–24 h) before centrifugation (Eppendorf centrifuge R5810, 4000 rpm for 5 min) and quantification of β-galactosidase activity.
β-galactosidase activity was measured as described previously ([Yang et al., 2017]), with minor modifications. Briefly, 200 μL aliquots from 2 ml treated cultures were added in triplicate to a clear 96-well microtiter plate, and then OD600 was measured and β-galactosidase activity was assayed. The final results were reported as percentage of activation, which is the ratio between the Miller units obtained after addition of the PapR7 analogs. In Bt ΔpapR A’Z strain, the plcA promoter activity was very low and considered as a baseline. In Bt A’Z strain, the untreated bacteria were considered as 100% of activation and the results were normalized accordingly. Each assay was repeated at least three times.

[2] = tested on: B. cereus ATCC 14579; assay type: cell-based, Bacillus cereus; details: n = 9; for IC50: supernatant of B. cereus ATCC 14579 cultures treated at OD600 0.1 ± 0.03 for 2.5 h, 1% human red blood cells, 30 min, 37°C, absorbance at 420 nm, mean ± SEM, SEM, read-out: IC50, hemolytic assay; for reduction of hemolytic activity: 10 μM peptide, B. cereus ATCC 14579 treated at OD600 0.1 ± 0.03, human red blood cells, normalized to untreated
Protocol: Bt A’Z or B. cereus ATCC 14579 cells were grown overnight in LB medium. The cells were diluted 10^–3 in modified LB to a final volume of 1 liter and incubated at 37°C with shaking (200 rpm) until the end of the lag phase of bacterial growth (OD600 0.1 ± 0.03). Different concentrations of synthetic peptides were added to 2 ml aliquots of culture and incubated for 2.5 h before centrifugation (Eppendorf centrifuge R5810, 4000 rpm for 5 min), separation and filtration (0.2 μm filter) of the supernatants of the treated cultures. Analyses of hemolytic activity were conducted as previously described using human red blood cells ([Tal-Gan et al., 2013b]; [Lobel et al., 2015]). Bacterial supernatants were serially diluted in Tris-buffered saline (pH 7.2, 10 mM Tris–HCl, 155 mM NaCl) with 1% human red blood cells (hRBC) suspension and were incubated for 30 min at 37°C. Hemolytic activities were measured by monitoring the absorbance at 420 nm.

[3] = molecular target: PlcR of B. cereus ATCC 14579 (B. cereus (endogenous in strain ATCC 14579))
[4] = molecular target: PlcR of B. thuringiensis 407 Cry- (B. thuringiensis (endogenous in strain 407 Cry- plcA'Z))
[5] = molecular target: PlcR of B. cereus ATCC 14579 (B. cereus (endogenous in strain ATCC 14579)); remark: listed apart in the source
[6] = molecular target: PlcR of B. cereus ATCC 14579 (B. cereus (endogenous in strain ATCC 14579)); remark: listed apart in the source
[7] = molecular target: PlcR of B. thuringiensis 407 Cry- (B. thuringiensis (endogenous in strain 407 Cry- plcA'Z)); remark: listed apart in the source
[8] = molecular target: PlcR of B. thuringiensis 407 Cry- (B. thuringiensis (endogenous in strain 407 Cry- plcA'Z)); remark: listed apart in the source

CC(C)C[C@H](NC(=O)[C@H](CC(=O)O)NC(=O)[C@H](C)N)C(=O)N1CCC[C@H]1C(=O)N[C@@H](Cc1ccccc1)C(=O)N[C@H](CCC(=O)O)C(=O)N[C@@H](Cc1ccccc1)C(N)=O [PapR7-dE6, reference compound] (H-ADLPF[dE]F-NH2; N-terminus assumed)
reduction of plcA'Z activity [1]: 65% | IC50 [1]: 0.977 ± 0.042 µM | IC50 [2]: 1.05 ± 0.089 µM

CC(C)C[C@H](NC(=O)[C@H](CC(=O)O)NC(=O)[C@H](C)N)C(=O)N1CCC[C@H]1C(=O)N[C@@H](Cc1ccccc1)C(=O)N[C@H](CCC(=O)O)C(=O)N[C@@H](C)C(N)=O [PapR7-dE6:F7A] (H-ADLPF[dE]A-NH2; N-terminus assumed)
reduction of plcA'Z activity [1]: 65% | effect on plcA'Z activation / PlcR regulon activity after 24 h (in words) [1]: blocked plcA’Z activation; also recorded: blocked the PlcR regulon activity | effect on plcA'Z activation at low cell density (in words) [1]: blocked plcA’Z activation | IC50 [1]: 2.57 ± 0.203 µM | class of inhibitory activity throughout the competition studies [1]: very potent inhibitors | IC50 [2]: 2.5 ± 0.212 µM

CC(C)C[C@H](NC(=O)[C@H](CC(=O)O)NC(=O)[C@H](C)N)C(=O)N1CCC[C@H]1C(=O)N[C@@H](Cc1ccccc1)C(=O)N[C@H](CCC(=O)O)C(=O)N[C@H](Cc1ccccc1)C(N)=O [PapR7-dE6:dF7] (H-ADLPF[dE][dF]-NH2; N-terminus assumed)
reduction of plcA'Z activity [1]: 71% | effect on plcA'Z activation / PlcR regulon activity after 24 h (in words) [1]: blocked plcA’Z activation; also recorded: blocked the PlcR regulon activity | effect on plcA'Z activation at low cell density (in words) [1]: blocked plcA’Z activation | IC50 [1]: 1.68 ± 0.17 µM | class of inhibitory activity throughout the competition studies [1]: very potent inhibitors | IC50 [2]: 1.38 ± 0.117 µM

CC(C)C[C@H](NC(=O)[C@H](CC(=O)O)NC(=O)[C@H](C)N)C(=O)N1CCC[C@H]1C(=O)N[C@@H](Cc1ccccc1)C(=O)N[C@@H](CCC(=O)O)C(=O)N[C@H](Cc1ccccc1)C(N)=O [PapR7-dF7, reference compound] (H-ADLPFE[dF]-NH2; N-terminus assumed)
reduction of plcA'Z activity [1]: 63% | IC50 [1]: 1.22 ± 0.072 µM | IC50 [2]: 3.04 ± 0.206 µM

ADLAFEA [PapR7-P4A:F7A, second-generation PapR7-derived peptide ADLAFEA]
reduction of plcA'Z activity [1]: approximately 40% | effect on plcA'Z activation at low cell density (in words) [1]: drastic reduction in plcA’Z activity | class of inhibitory activity throughout the competition studies [1]: median to high inhibitory activities | reduction of hemolytic activity [2]: ~60%

ADLAFEdF [PapR7-P4A:dF7, second-generation PapR7-derived peptide ADLAFEdF]
reduction of plcA'Z activity [1]: approximately 40% | effect on plcA'Z activation at low cell density (in words) [1]: drastic reduction in plcA’Z activity | class of inhibitory activity throughout the competition studies [1]: median to high inhibitory activities | reduction of hemolytic activity [2]: approximately 83%

PapR7-E6A:F7A (peptide)
reduction of the hemolytic activity (human red blood cells) of supernatants of B. cereus ATCC 14579 cultures treated with 10 μM peptide; the pair that is blocked: native PapR with PlcR [3]: 60% | reduction of plcA'Z (β-galactosidase) activity in Bt A'Z cells, 2.5 μM peptide added at late-exponential phase; the pair that is blocked: endogenous PapR with PlcR [4]: 40%

PapR7-E6A:dF7 (peptide)
reduction of plcA'Z (β-galactosidase) activity in Bt A'Z cells, 2.5 μM peptide added at late-exponential phase; the pair that is blocked: endogenous PapR with PlcR [4]: 40% | inhibition of the hemolytic activity (human red blood cells) of supernatants of B. cereus ATCC 14579 cultures treated with 10 μM peptide; the pair that is blocked: native PapR with PlcR [5]: 83%

PapR7-F7A (peptide)
reduction of plcA'Z (β-galactosidase) activity in Bt A'Z cells, 2.5 μM peptide added at late-exponential phase; the pair that is blocked: endogenous PapR with PlcR [4]: 70% | IC50 of inhibition of the hemolytic activity (human red blood cells) of supernatants of treated B. cereus ATCC 14579 cultures; the pair that is blocked: native PapR with PlcR [6]: 2.73 µM | IC50 of inhibition of plcA'Z (β-galactosidase) activity in Bt A'Z cells, lacZ-based reporter assay; the pair that is blocked: endogenous PapR with PlcR [7]: 1.68 µM

PapR7-P4A (peptide)
IC50 of inhibition of the hemolytic activity (human red blood cells) of supernatants of treated B. cereus ATCC 14579 cultures; the pair that is blocked: native PapR with PlcR [6]: 4.39 µM

PapR7-P4A:F7A (peptide)
reduction of the hemolytic activity (human red blood cells) of supernatants of B. cereus ATCC 14579 cultures treated with 10 μM peptide; the pair that is blocked: native PapR with PlcR [3]: 60% | reduction of plcA'Z (β-galactosidase) activity in Bt A'Z cells, 2.5 μM peptide added at late-exponential phase; the pair that is blocked: endogenous PapR with PlcR [4]: 40%

PapR7-P4A:dE6 (peptide)
reduction of plcA'Z (β-galactosidase) activity in Bt A'Z cells, 2.5 μM peptide added at late-exponential phase; the pair that is blocked: endogenous PapR with PlcR [4]: 40%

PapR7-P4A:dE6:F7A (peptide)
reduction of plcA'Z (β-galactosidase) activity in Bt A'Z cells, 10 μM peptide added at end of lag phase (OD600 0.1); the pair that is blocked: endogenous PapR with PlcR [8]: 75% | reduction of plcA'Z (β-galactosidase) activity in Bt A'Z cells, 2.5 μM peptide added at late-exponential phase; the pair that is blocked: endogenous PapR with PlcR [4]: 40% | IC50 of inhibition of the hemolytic activity (human red blood cells) of supernatants of treated B. cereus ATCC 14579 cultures; the pair that is blocked: native PapR with PlcR [6]: 1.99 µM

PapR7-P4A:dE6:dF7 (peptide)
reduction of plcA'Z (β-galactosidase) activity in Bt A'Z cells, 10 μM peptide added at end of lag phase (OD600 0.1); the pair that is blocked: endogenous PapR with PlcR [8]: 75% | reduction of plcA'Z (β-galactosidase) activity in Bt A'Z cells, 2.5 μM peptide added at late-exponential phase; the pair that is blocked: endogenous PapR with PlcR [4]: 40% | IC50 of inhibition of the hemolytic activity (human red blood cells) of supernatants of treated B. cereus ATCC 14579 cultures; the pair that is blocked: native PapR with PlcR [6]: 2.14 µM

PapR7-P4A:dF7 (peptide)
reduction of plcA'Z (β-galactosidase) activity in Bt A'Z cells, 2.5 μM peptide added at late-exponential phase; the pair that is blocked: endogenous PapR with PlcR [4]: 40% | inhibition of the hemolytic activity (human red blood cells) of supernatants of B. cereus ATCC 14579 cultures treated with 10 μM peptide; the pair that is blocked: native PapR with PlcR [5]: 83%

PapR7-dE6 (peptide)
reduction of plcA'Z (β-galactosidase) activity in Bt A'Z cells, 2.5 μM peptide added at late-exponential phase; the pair that is blocked: endogenous PapR with PlcR [4]: 65% | IC50 of inhibition of the hemolytic activity (human red blood cells) of supernatants of treated B. cereus ATCC 14579 cultures; the pair that is blocked: native PapR with PlcR [6]: 1.05 µM | IC50 of inhibition of plcA'Z (β-galactosidase) activity in Bt A'Z cells, lacZ-based reporter assay; the pair that is blocked: endogenous PapR with PlcR [7]: 0.977 µM

PapR7-dE6:F7A (peptide)
reduction of plcA'Z (β-galactosidase) activity in Bt A'Z cells, 2.5 μM peptide added at late-exponential phase; the pair that is blocked: endogenous PapR with PlcR [4]: 65% | IC50 of inhibition of the hemolytic activity (human red blood cells) of supernatants of treated B. cereus ATCC 14579 cultures; the pair that is blocked: native PapR with PlcR [6]: 2.5 µM | IC50 of inhibition of plcA'Z (β-galactosidase) activity in Bt A'Z cells, lacZ-based reporter assay, late-exponential phase; the pair that is blocked: endogenous PapR with PlcR [7]: 2.57 µM

PapR7-dE6:dF7 (peptide)
reduction of plcA'Z (β-galactosidase) activity in Bt A'Z cells, 2.5 μM peptide added at late-exponential phase; the pair that is blocked: endogenous PapR with PlcR [4]: 71% | IC50 of inhibition of the hemolytic activity (human red blood cells) of supernatants of treated B. cereus ATCC 14579 cultures; the pair that is blocked: native PapR with PlcR [6]: 1.38 µM | IC50 of inhibition of plcA'Z (β-galactosidase) activity in Bt A'Z cells, lacZ-based reporter assay, late-exponential phase; the pair that is blocked: endogenous PapR with PlcR [7]: 1.68 µM

PapR7-dF7 (peptide)
reduction of plcA'Z (β-galactosidase) activity in Bt A'Z cells, 2.5 μM peptide added at late-exponential phase; the pair that is blocked: endogenous PapR with PlcR [4]: 63% | IC50 of inhibition of the hemolytic activity (human red blood cells) of supernatants of treated B. cereus ATCC 14579 cultures; the pair that is blocked: native PapR with PlcR [6]: 3.04 µM | IC50 of inhibition of plcA'Z (β-galactosidase) activity in Bt A'Z cells, lacZ-based reporter assay; the pair that is blocked: endogenous PapR with PlcR [7]: 1.22 µM

Source: article PMC6568020, “Elucidating the Hot Spot Residues of Quorum Sensing Peptidic Autoinducer PapR by Multiple Amino Acid Replacements” (Frontiers in Microbiology, 2019)
